Assay results: the supplement of paper PMC5998384

What was measured:
HeLa Kyoto [1] = experiment: melting temperature (median over replicates), in situ; higher = more thermally stable
HeLa Kyoto [2] = experiment: solubility change mitosis vs G1/S (difference of NP-40 vs SDS log2 ratios) (log2 ratio difference); higher = more soluble in mitosis
HeLa Kyoto [3] = experiment: solubility in G1/S (NP-40 vs SDS abundance) (log2 ratio); higher = more soluble; conditions: cell cycle stage: G1/S
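Wherever melting temperature (median over replicates), in situ is given: HeLa Kyoto cells synchronized by double thymidine or nocodazole block, proteins quantified by TMT10plex mass spectrometry, three independent biological replicates.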
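Wherever solubility change mitosis vs G1/S (difference of NP-40 vs SDS log2 ratios) is given: synchronized HeLa Kyoto cells (double thymidine block for G1/S, nocodazole release for mitosis), protein amounts in NP-40 versus SDS lysates quantified by mass spectrometry, three biological replicates.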
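Wherever solubility in G1/S (NP-40 vs SDS abundance) is given: HeLa Kyoto cells arrested at G1/S by double thymidine block, proteins quantified by TMT10plex mass spectrometry in mild NP-40 versus SDS extracts, three biological replicates.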

Sequence	melting temperature (HeLa Kyoto [1]; cell cycle stage: G1/S)	solubility change mitosis (log2) (HeLa Kyoto [2])	solubility in G1/S (log2) (HeLa Kyoto [3])	melting temperature (HeLa Kyoto [1]; cell cycle stage: mitosis)
MEAEETMECLQEFPEHHKMILDRLNEQREQDRFTDITLIVDGHHFKAHKAVLAACSKFFYKFFQEFTQEPLVEIEGVSKMAFRHLIEFTYTAKLMIQGEEEANDVWKAAEFLQMLEAIKALEVRNKENSAPLEENTTGKNEAKKRKIAETSNVITESLPSAESEPVEIEVEIAEGTIEVEDEGIETLEEVASAKQSVKYIQSTGSSDDSALALLADITSKYRQGDRKGQIKEDGCPSDPTSKQVEGIEIVELQLSHVKDLFHCEKCNRSFKLFYHFKEHMKSHSTESFKCEICNKRYLRESAWKQHLNCYHLEEGGVSKKQRTGKKIHVCQYCEKQFDHFGHFKEHLRKHTGEKPFECPNCHERFARNSTLKCHLTACQTGVGAKKGRKKLYECQVCNSVFNSWDQFKDHLVIHTGDKPNHCTLCDLWFMQGNELRRHLSDAHNISERLVTEEVLSVETRVQTEPVTSMTIIEQVGKVHVLPLLQVQVDSAQVTVEQVHPDLLQDSQVHDSHMSELPEQVQVSYLEVGRIQTEEGTEVHVEELHVERVNQMPVEVQTELLEADLDHVTPEIMNQEERESSQADAAEAAREDHEDAEDLETKPTVDSEAEKAENEDRTALPVLE [ZNF131]	46.6 °C	-0.0242	-0.231	–
MEAVATATAAKEPDKGCIEPGPGHWGELSRTPVPSKPQDKVEAAEATPVALDSDTSGAENAAVSAMLHAVAASRLPVCSQQQGEPDLTEHEKVAILAQLYHEKPLVFLERFRTGLREEHLACFGHVRGDHRADFYCAEVARQGTARPRTLRTRLRNRRYAALRELIQGGEYFSDEQMRFRAPLLYEQYIGQYLTQEELSARTPTHQPPKPGSPGRPACPLSNLLLQSYEERELQQRLLQQQEEEEACLEEEEEEEDSDEEDQRSGKDSEAWVPDSEERLILREEFTSRMHQRFLDGKDGDFDYSTVDDNPDFDNLDIVARDEEERYFDEEEPEDAPSPELDGD [CCDC97]	49.6 °C	0.36	0.105	50.8 °C
MESGDEAAIERHRVHLRSATLRDAVPATLHLLPCEVAVDGPAPVGRFFTPAIRQGPEGLEVSFRGRCLRGEEVAVPPGLVGYVMVTEEKKVSMGKPDPLRDSGTDDQEEEPLERDFDRFIGATANFSRFTLWGLETIPGPDAKVRGALTWPSLAAAIHAQVPED [RNASEH2C]	50.7 °C	-0.016	0.236	50.3 °C
MEVHGKPKASPSCSSPTRDSSGVPVSKELLTAGSDGRGGIWDRLLINSQPKSRKTSTLQTVRIERSPLLDQVQTFLPQMARANEKLRKEMAAAPPGRFNIENIDGPHSKVIQMDVALFEMNQSDSKEVDSSEESSQDSSENSSESEDEDDSIPSEVTIDNIKLPNSEGGKGKIEVLDSPASKKKK [C12ORF45]	52.9 °C	0.0873	-0.302	53.7 °C
MFHGIPATPGIGAPGNKPELYEEVKLYKNAREREKYDNMAELFAVVKTMQALEKAYIKDCVSPSEYTAACSRLLVQYKAAFRQVQGSEISSIDEFCRKFRLDCPLAMERIKEDRPITIKDDKGNLNRCIADVVSLFITVMDKLRLEIRAMDEIQPDLRELMETMHRMSHLPPDFEGRQTVSQWLQTLSGMSASDELDDSQVRQMLFDLESAYNAFNRFLHA [VPS28]	51.5 °C	0.014	0.19	–
MGAPRSLLLALAAGLAVARPPNIVLIFADDLGYGDLGCYGHPSSTTPNLDQLAAGGLRFTDFYVPVSLCTPSRAALLTGRLPVRMGMYPGVLVPSSRGGLPLEEVTVAEVLAARGYLTGMAGKWHLGVGPEGAFLPPHQGFHRFLGIPYSHDQGPCQNLTCFPPATPCDGGCDQGLVPIPLLANLSVEAQPPWLPGLEARYMAFAHDLMADAQRQDRPFFLYYASHHTHYPQFSGQSFAERSGRGPFGDSLMELDAAVGTLMTAIGDLGLLEETLVIFTADNGPETMRMSRGGCSGLLRCGKGTTYEGGVREPALAFWPGHIAPGVTHELASSLDLLPTLAALAGAPLPNVTLDGFDLSPLLLGTGKSPRQSLFFYPSYPDEVRGVFAVRTGKYKAHFFTQGSAHSDTTADPACHASSSLTAHEPPLLYDLSKDPGENYNLLGGVAGATPEVLQALKQLQLLKAQLDAAVTFGPSQVARGEDPALQICCHPGCTPRPACCHCPDPHA [ARSA]	55.6 °C	-0.0336	0.664	55.6 °C
MGDEDDDESCAVELRITEANLTGHEEKVSVENFELLKVLGTGAYGKVFLVRKAGGHDAGKLYAMKVLRKAALVQRAKTQEHTRTERSVLELVRQAPFLVTLHYAFQTDAKLHLILDYVSGGEMFTHLYQRQYFKEAEVRVYGGEIVLALEHLHKLGIIYRDLKLENVLLDSEGHIVLTDFGLSKEFLTEEKERTFSFCGTIEYMAPEIIRSKTGHGKAVDWWSLGILLFELLTGASPFTLEGERNTQAEVSRRILKCSPPFPPRIGPVAQDLLQRLLCKDPKKRLGAGPQGAQEVRNHPFFQGLDWVALAARKIPAPFRPQIRSELDVGNFAEEFTRLEPVYSPPGSPPPGDPRIFQGYSFVAPSILFDHNNAVMTDGLEAPGAGDRPGRAAVARSAMMQDSPFFQQYELDLREPALGQGSFSVCRRCRQRQSGQEFAVKILSRRLEANTQREVAALRLCQSHPNVVNLHEVHHDQLHTYLVLELLRGGELLEHIRKKRHFSESEASQILRSLVSAVSFMHEEAGVVHRDLKPENILYADDTPGAPVKIIDFGFARLRPQSPGVPMQTPCFTLQYAAPELLAQQGYDESCDLWSLGVILYMMLSGQVPFQGASGQGGQSQAAEIMCKIREGRFSLDGEAWQGVSEEAKELVRGLLTVDPAKRLKLEGLRGSSWLQDGSARSSPPLRTPDVLESSGPAVRSGLNATFMAFNRGKREGFFLKSVENAPLAKRRKQKLRSATASRRGSPAPANPGRAPVASKGAPRRANGPLPPS [RPS6KA4]	46.6 °C	-0.0849	-0.0622	49.5 °C
